# Measurements from patent US10407638B2, “Production of alpha-olefins” (TOTAL RAFFINAGE CHIMIE, priority 2015, dated 2019).
# B1: Sm46-del29: truncated variant of Sm46 with the N-terminal 29 amino acids deleted, SEQ ID NO:13 (protein)
# chain: AKKLPKVKGLDNTVDIIKGGYTYVPGKLEEFDSKAFEVRALGGKKIAVMSGKEAAEIFYDNEKMERQGTLPKRIVNTLFGKGAIHTTAGKKHVDRKALFMSLMTDENLNYLRELTRNYWFMNTERMQSMDKVNVYNESIYMLTKIGFRWAGIIQTPEEAEQNAKDMDTMINSFVSLGSAYKGYKKAKKARKRVEDFLEKQIIDVRKGKLHPEEGTALYEFAHWEDLNDNPMDSHLCAVDLMNVVRPLAAINRFISYGVKVLIEFDQEKEKLRLENNEDYAYKFAQEVRRIFPFVPYLPGRAAVDLEYDGYKIPAGMMTALDVYGTTHDEDLWENPDQFNPNRFDNWDGSPFDLIPQGGGDFYTNHRCAGEWITVIIMEETMKYFANKIEFDVPSQDLSVKLDKLPGNVTSGTIISNVRPRVARK
# modifications: Sm46-del29
# B2: Sm46: olefin-producing enzyme from Staphilococcus massiliensis, SEQ ID NO:8 (protein, listed as Staphylococcus massiliensis)
# chain: MFVDSILVLRLNLLKTGIQLEMKNGGIKVAKKLPKVKGLDNTVDIIKGGYTYVPGKLEEFDSKAFEVRALGGKKIAVMSGKEAAEIFYDNEKMERQGTLPKRIVNTLFGKGAIHTTAGKKHVDRKALFMSLMTDENLNYLRELTRNYWFMNTERMQSMDKVNVYNESIYMLTKIGFRWAGIIQTPEEAEQNAKDMDTMINSFVSLGSAYKGYKKAKKARKRVEDFLEKQIIDVRKGKLHPEEGTALYEFAHWEDLNDNPMDSHLCAVDLMNVVRPLAAINRFISYGVKVLIEFDQEKEKLRLENNEDYAYKFAQEVRRIFPFVPYLPGRAAVDLEYDGYKIPAGMMTALDVYGTTHDEDLWENPDQFNPNRFDNWDGSPFDLIPQGGGDFYTNHRCAGEWITVIIMEETMKYFANKIEFDVPSQDLSVKLDKLPGNVTSGTIISNVRPRVARK
# B3: Aa162: decarboxylase (olefin-producing enzyme) from Alicyclobacillus acidocaldarius, SEQ ID NO:6 (protein, listed as Alicyclobacillus acidocaldarius)
# chain: MNQCIPRDRTFDSSLALIKEGYLFIKNRVDQYQSDIFEARLLLENVVCMHGAEAAKLFYNTELFQRQGALPKRVQKTLFGENAIQTLDGTAHLHRKQLFLSLLTPDQEKSLATLATTQWRECAKVWENADRVVLFEEAKRMLCRIACQWTGVPLDESEVSKRADDFGAMVDAFGAVGPRHWKGRRARARAEAWLRQMIDEIRIGLRSVDEHTPLHVVAFWRDVNGNLLDAQMVAIELINLLRPIVAISTFITFSALALHEHPTWRDRLKARNEADIEMFVQEVRRYYPFAPFLGARVKKDFVWRGYEFKRGTLVLLDVYGTHHDARLWDSPNEFRPERFMRKTVGPFDLIPQGGGDSHTGHRCPGEGATIEIMKASVDFLVNQIDFEVPAQDLSYRLDVMPTLPKSGFVLTHVHRKFIASPTIATPNGSEALPSEV
# B4: OleTJE: P450 decarboxylase from Jeotgalicoccus sp. ATCC 8456, decarboxylates C12 to C20 free fatty acids to α-olefins (protein, listed as Jeotgalicoccus sp.)
# chain: MATLKRDKGLDNTLKVLKQGYLYTTNQRNRLNTSVFQTKALGGKPFVVVTGKEGAEMFYNNDVVQREGMLPKRIVNTLFGKGAIHTVDGKKHVDRKALFMSLMTEGNLNYVRELTRTLWHANTQRMESMDEVNIYRESIVLLTKVGTRWAGVQAPPEDIERIATDMDIMIDSFRALGGAFKGYKASKEARRRVEDWLEEQIIETRKGNIHPPEGTALYEFAHWEDYLGNPMDSRTCAIDLMNTFRPLIAINRFVSFGLHAMNENPITREKIKSEPDYAYKFAQEVRRYYPFVPFLPGKAKVDIDFQGVTIPAGVGLALDVYGTTHDESLWDDPNEFRPERFETWDGSPFDLIPQGGGDYWTNHRCAGEWITVIIMEETMKYFAEKITYDVPEQDLEVDLNSIPGYVKSGFVIKNVREVVDRT
# B5: Bs168: P450BSβ fatty acid hydroxylase from Bacillus subtilis subsp. subtilis str. 168, SEQ ID NO:4 (protein, listed as Bacillus subtilis)
# chain: MNEQIPHDKSLDNSLTLLKEGYLFIKNRTERYNSDLFQARLLGKNFICMTGAEAAKVFYDTDRFQRQNALPKRVQKSLFGVNAIQGMDGSAHIHRKMLFLSLMTPPHQKRLAELMTEEWKAAVTRWEKADEVVLFEEAKEILCRVACYWAGVPLKETEVKERADDFIDMVDAFGAVGPRHWKGRRARPRAEEWIEVMIEDARAGLLKTTSGTALHEMAFHTQEDGSQLDSRMAAIELINVLRPIVAISYFLVFSALALHEHPKYKEWLRSGNSREREMFVQEVRRYYPFGPFLGALVKKDFVWNNCEFKKGTSVLLDLYGTNHDPRLWDHPDEFRPERFAEREENLFDMIPQGGGHAEKGHRCPGEGITIEVMKASLDFLVHQIEYDVPEQSLHYSLARMPSLPESGFVMSGIRRKS
# How the values were obtained:
# Type in all cases: biochemical
# [1] = Fatty acid decarboxylation assay with purified Sm46-del29, GC
# Procedure: FIG. 6: In vitro conversion of free fatty acids into α-olefins by a truncated variant of Sm46: Sm46-del29. Conversion percentages of the free fatty acid substrates (A) and the corresponding α-alkene products (B) are shown.
# The fatty acid decarboxylation assays containing 1.0 μM Sm46-del29, 200 μM fatty acid substrate (from C8 to C20), 220 μM H2O2 in 200 μl of storage buffer were carried out at 28° C. for 2 h. Reactions were quenched by the addition of 20 μl of 10 M HCl. Heptadecanoic acid was added as internal standard and the mixture was extracted by 200 μl ethyl acetate. Following extraction, the organic phase was collected and analyzed by gas chromatography as described below.
# The GC analytical method for hydrocarbon and fatty acid samples was adapted from Guan et al. (2011 J Chromatogr A 1218:8289-8293). The analyses were performed on an Agilent 7890B gas chromatograph equipped with a capillary column HP-INNOWAX (Agilent Technologies, Santa Clara, Calif., USA; cross-linked polyethylene glycerol, i.d. 0.25 μm film thickness, 30 m by 0.25 mm). The helium flow rate was set to 1 ml per minute. The oven temperature was controlled initially at 40° C. for 4 min, then increased at the rate of 10° C. per min to 250° C., and held for 5 min. The injecting temperature was set to 280° C. with the injection volume of 1 μl under splitless injection conditions. The response factors between fatty acids and alkenes were determined by analyzing known authentic fatty acids (C10-C20), 1-alkenes (C9-C19) and 1-heptadecanoic acid standards as described in Liu et al. (2014 Biotechnol. Biofuels 7:28).
# [2] = Reaction of purified enzymes with C14 fatty acid, analysis of decarboxylation and hydroxylation products; conditions: compared with Bs168 and Aa162; FIG. 7
# Procedure: FIG. 7: In vitro production of α-olefins by Aa162, Bs168 and Sm46-del29. Recombinantly expressed and purified enzyme (0.2 μM) was used in an in vitro assay for α-olefin biosynthesis in the presence of C14 fatty acid substrate. The conversion percentages are shown for, from left to right, C14 free fatty acid substrate, C13 α-olefin, α-hydroxy C14 fatty acid, β-hydroxy C14 fatty acid.
# Recombinantly expressed and purified Bs168 and Aa162 from Example 1 and Sm46-del29 of Example 2 were reacted with C14 fatty acid and the products of decarboxylation (C13 α-olefin) and hydroxylation (α-OH—O14 fatty acid and β-OH—C14 fatty acid) reactions were analyzed.
# [3] = In vitro olefin biosynthesis assay with supernatant of E. coli lysates expressing the enzyme, GC/MS; conditions: for fatty acid decarboxylase activity (α-olefin production): C12, C14 or C16 fatty acid substrate (1 mM), H2O2 500 μM
# Procedure: FIG. 4: In vitro production of α-olefins by OleTJE, Bs168, Aa162 and Sm46. Genes encoding OleTJ, Bs168, Aa162 and Sm46 were recombinantly expressed in E. coli. The supernatant of the E. coli lysates was used in an in vitro assay for α-olefin biosynthesis in the presence of C12, C14 or C16 fatty acid substrate (1 mM) and H2O2 (500 μM). C11, C13 and C15 α-olefin production by the different enzymes is indicated as the area under the gas chromatographic (GC) peak.
# E. coli BL21(DE3) cells (Novagen) carrying a recombinant plasmid or an empty PET28a plasmid (control) were cultured for several cycles to ensure best growth state at 37° C. in 10 mL LB medium supplemented with 50 μg/ml of kanamycin, followed by inoculation (1:100 ratio) into 50 mL fresh Terrific Broth medium containing 50 μg/ml of kanamycin, 1 mM thiamine, 10% glycerol and a rare salt solution (6750 mg/l FeCl3, 500 mg/l ZnCl2, 500 mg/l CoCl2, 500 mg/l Na2MoO4, 250 mg/l CaCl2, 465 mg/l CuSO4, and 125 mg/l H31303) at 37° C. Cells were grown at 37° C. for 3 to 4 h until the optical density at 600 nm (OD600) reached 0.6 to 0.8, at which 0.2 or 0.4 mM isopropyl-β-D-thiogalactopyranoside (IPTG) and 0.5 mM 5-aminolevulinic acid were added, followed by 18 h of cultivation at 16° C.
# Then, the cell cultures were recovered by centrifugation (at 4° C.) and re-suspended in 1.5 mL 50 mM Tris buffer, pH 7.5, containing 0.1 M NaCl. The re-suspended cell cultures were disrupted by sonication and centrifuged at 13,000×g for 30 min (4° C.). The supernatant was collected and the pellet was re-suspended in 1.5 mL 50 mM Tris buffer, pH 7.5, containing 0.1 M NaCl for further analysis. An SDS gel was run to check the expression of the genes using 15 μL of supernatant or pellet solution mixed with 5 μL of 4× loading buffer (FIG. 3).
# In vitro olefin biosynthesis was evaluated by adding to the supernatant a fatty acid substrate in DMSO to a final concentration of 0.2 mM (1:100 dilution) or 1 mM (1:10 dilution), and 500 μM H2O2. The reaction mixture was incubated at 28° C. for 2-3 h, or stopped using 50 μL of 10 M HCl at t=0, 15, 30, 60 and 120 min for a dynamic test. Then, C16 fatty acid was added at a final concentration of 0.2 mM (1:100 dilution) as an internal standard. 300 μL reaction mixture of each reaction condition was extracted with equal volume of ethyl acetate, and the organic phase was analyzed for hydrocarbons by gas chromatography/mass spectrometry (GC/MS). In the meanwhile, undecene of different concentrations (0, 0.05 mM, 0.1 mM, 0.2 mM and 0.5 mM) were tested to produce a standard curve.
# [4] = C12, C14 or C16 fatty acid substrate, FIG. 4
Molecule,fatty acid decarboxylase activity (α-olefin production) ([3]; FIG. 4),"substrate preference [3, 4]",further results
B1,,,"decarboxylase activity ([1]; 1.0 μM enzyme, 200 μM fatty acid, 220 μM H2O2, 28° C., 2 h, FIG. 6): had decarboxylase activity; decarboxylation of C10 free fatty acid ([1]; C9 α-olefin not detected due to volatility): able to decarboxylate C10 free fatty acid; substrate preference for α-olefin production ([1]; among tested fatty acid substrates C8 to C20, FIG. 6): substrate preference for C12 free fatty acid; formation of hydroxy fatty acids [2]: formed less hydroxy fatty acids"
B2,fatty acid decarboxylase activity,,"substrate preference ([3]; later experiments, data not shown): substrate preference for C12 fatty acid substrate"
B3,fatty acid decarboxylase activity,preference for C12 fatty acid substrate,
B4,fatty acid decarboxylase activity,,
B5,fatty acid decarboxylase activity,preference for C12 fatty acid substrate,
